Measured values taken from PMC8627827 (Biomacromolecules, 2021).

Experiment: Subcutaneous pharmacokinetics in streptozotocin-induced diabetic rats
Set-up: species or system Male Sprague Dawley rats
Conditions: rat, in vivo, sc, 10 U/kg

**Q.** For “insulin-PEG20k: insulin covalently modified with 20 kDa mPEG via insulin-BCN, long-acting control”, which “Time to peak (serum insulin)” value is on record?
**A.** Its value is 7 ± 1 h.
